From publication PMC10397247

Assays:
O8-bS = biological target: T1, O8-bS; experiment: two-hybrid library CCNG1;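 note: natural log of median RNA to DNA barcode read ratio; higher means stronger binding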
T1 chain: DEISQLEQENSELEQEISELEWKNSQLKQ

O7-bS = biological target: T2, O7-bS; experiment: two-hybrid library CCNG1;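 note: natural log of median RNA to DNA barcode read ratio; higher means stronger binding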
T2 chain: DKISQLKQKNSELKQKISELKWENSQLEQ

O12-bS = biological target: T3, O12-bS; experiment: two-hybrid library CCNG1;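 note: natural log of median RNA to DNA barcode read ratio; higher means stronger binding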
T3 chain: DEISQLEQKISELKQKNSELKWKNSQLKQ

O3-bS = biological target: T4, O3-bS; experiment: two-hybrid library CCNG1;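 note: natural log of median RNA to DNA barcode read ratio; higher means stronger binding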
T4 chain: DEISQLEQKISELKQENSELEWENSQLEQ

O16-bS = biological target: T5, O16-bS; experiment: two-hybrid library CCNG1;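 note: natural log of median RNA to DNA barcode read ratio; higher means stronger binding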
T5 chain: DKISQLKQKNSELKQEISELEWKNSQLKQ

O4-bS = biological target: T6, O4-bS; experiment: two-hybrid library CCNG1;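 note: natural log of median RNA to DNA barcode read ratio; higher means stronger binding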
T6 chain: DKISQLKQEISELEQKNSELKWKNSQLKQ

O13-bS = biological target: T7, O13-bS; experiment: two-hybrid library CCNG1
T7 chain: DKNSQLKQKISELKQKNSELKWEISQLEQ

O14-bS = biological target: T8, O14-bS; experiment: two-hybrid library CCNG1
T8 chain: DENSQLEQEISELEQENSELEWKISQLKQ

O2-bS = biological target: T9, O2-bS; experiment: two-hybrid library CCNG1
T9 chain: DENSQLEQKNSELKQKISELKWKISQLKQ

O9-bS = biological target: T10, O9-bS; experiment: two-hybrid library CCNG1
T10 chain: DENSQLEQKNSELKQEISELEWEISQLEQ

O5-bS = biological target: T11, O5-bS; experiment: two-hybrid library CCNG1
T11 chain: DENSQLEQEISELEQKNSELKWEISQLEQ

O15-bS = biological target: T12, O15-bS; experiment: two-hybrid library CCNG1
T12 chain: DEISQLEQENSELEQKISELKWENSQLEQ

O6-bS = biological target: T13, O6-bS; experiment: two-hybrid library CCNG1
T13 chain: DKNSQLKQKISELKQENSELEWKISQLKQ

P10-AA = biological target: T14, P10-AA; experiment: two-hybrid library CCmax; conditions: mean of both orientations
T14 chain: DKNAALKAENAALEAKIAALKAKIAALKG

O7-AA = biological target: T15, O7-AA; experiment: two-hybrid library CCmax; conditions: mean of both orientations
T15 chain: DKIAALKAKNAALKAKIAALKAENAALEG

4H43-AA = biological target: T16, 4H43-AA; experiment: two-hybrid library CCmax; conditions: mean of both orientations
T16 chain: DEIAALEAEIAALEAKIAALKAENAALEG

O6-AA = biological target: T17, O6-AA; experiment: two-hybrid library CCmax; conditions: mean of both orientations
T17 chain: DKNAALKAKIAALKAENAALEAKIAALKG

P9-AA = biological target: T18, P9-AA; experiment: two-hybrid library CCmax; conditions: mean of both orientations
T18 chain: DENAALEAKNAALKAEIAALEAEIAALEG

O3-AA = biological target: T19, O3-AA; experiment: two-hybrid library CCmax; conditions: mean of both orientations
T19 chain: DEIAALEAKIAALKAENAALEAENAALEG

O5-AA = biological target: T20, O5-AA; experiment: two-hybrid library CCmax; conditions: mean of both orientations
T20 chain: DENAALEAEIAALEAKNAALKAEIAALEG

O14-AA = biological target: T21, O14-AA; experiment: two-hybrid library CCmax; conditions: mean of both orientations
T21 chain: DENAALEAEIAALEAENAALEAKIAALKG

4H_APH = biological target: T22, 4H_APH; experiment: two-hybrid library CCmax; conditions: mean of both orientations
T22 chain: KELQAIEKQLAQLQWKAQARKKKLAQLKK

O8-AA = biological target: T23, O8-AA; experiment: two-hybrid library CCmax; conditions: mean of both orientations
T23 chain: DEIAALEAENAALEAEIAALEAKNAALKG

O2-AA = biological target: T24, O2-AA; experiment: two-hybrid library CCmax; conditions: mean of both orientations
T24 chain: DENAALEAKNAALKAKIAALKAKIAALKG

4H4038-AA = biological target: T25, 4H4038-AA; experiment: two-hybrid library CCmax; conditions: mean of both orientations
T25 chain: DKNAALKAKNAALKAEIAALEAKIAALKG

O1-AA = biological target: T26, O1-AA; experiment: two-hybrid library CCmax; conditions: mean of both orientations
T26 chain: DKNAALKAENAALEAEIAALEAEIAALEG

4H_BCR = biological target: T27, 4H_BCR; experiment: two-hybrid library CCmax; conditions: mean of both orientations
T27 chain: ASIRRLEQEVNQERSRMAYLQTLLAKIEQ

4H3905-AA = biological target: T28, 4H3905-AA; experiment: two-hybrid library CCmax; conditions: mean of both orientations
T28 chain: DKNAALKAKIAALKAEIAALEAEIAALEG

4H697-AA = biological target: T29, 4H697-AA; experiment: two-hybrid library CCmax; conditions: mean of both orientations
T29 chain: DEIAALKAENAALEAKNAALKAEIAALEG

GCN2_T = experiment: two-hybrid library CCmax; conditions: mean of both orientations
4H982-AA = biological target: T30, 4H982-AA; experiment: two-hybrid library CCmax; conditions: mean of both orientations
T30 chain: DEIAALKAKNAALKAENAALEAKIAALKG

4H3865-AA = biological target: T31, 4H3865-AA; experiment: two-hybrid library CCmax; conditions: mean of both orientations
T31 chain: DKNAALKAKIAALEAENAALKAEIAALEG

O11-AA = biological target: T32, O11-AA; experiment: two-hybrid library CCmax; conditions: mean of both orientations
T32 chain: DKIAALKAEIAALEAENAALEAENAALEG

4H510-AA = biological target: T33, 4H510-AA; experiment: two-hybrid library CCmax; conditions: mean of both orientations
T33 chain: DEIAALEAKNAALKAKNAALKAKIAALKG

4H451-AA = biological target: T34, 4H451-AA; experiment: two-hybrid library CCmax; conditions: mean of both orientations
T34 chain: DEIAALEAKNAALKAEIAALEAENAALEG

O4-AA = biological target: T35, O4-AA; experiment: two-hybrid library CCmax; conditions: mean of both orientations
T35 chain: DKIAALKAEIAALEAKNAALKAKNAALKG

O13-AA = biological target: T36, O13-AA; experiment: two-hybrid library CCmax; conditions: mean of both orientations
T36 chain: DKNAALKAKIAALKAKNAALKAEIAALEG

4H384-AA = biological target: T37, 4H384-AA; experiment: two-hybrid library CCmax
T37 chain: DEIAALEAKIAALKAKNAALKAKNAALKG

4H_GCN4 = experiment: two-hybrid library CCmax
4H_GCN4, sequence (chain, as listed by the source): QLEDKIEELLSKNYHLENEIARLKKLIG

DEISQLEQKISELKQKNSELKWKNSQLKQ [O12-bS]
interaction score (O8-bS): -0.862 | interaction score (O7-bS): -0.726 | interaction score (O12-bS): -0.402 | interaction score (O3-bS): 0.395 | interaction score (O16-bS): -1.04 | interaction score (O4-bS): -0.445 | interaction score (O13-bS): -2.21 | interaction score (O14-bS): -2.32 | interaction score (O2-bS): -0.108 | interaction score (O9-bS): -0.617 | interaction score (O5-bS): -1.66 | interaction score (O15-bS): -0.445 | interaction score (O6-bS): -0.702

DEIAALEAKIAALKAKNAALKAKNAALKG [4H384-AA]
interaction score (P10-AA): -1.12 | interaction score (O7-AA): -1.59 | interaction score (4H43-AA): 0.71 | interaction score (O6-AA): -0.52 | interaction score (P9-AA): -0.334 | interaction score (O3-AA): 1.52 | interaction score (O5-AA): -0.778 | interaction score (O14-AA): 0.835 | interaction score (4H_APH): -1.66 | interaction score (O8-AA): 0.295 | interaction score (O2-AA): -1.68 | interaction score (4H4038-AA): -1.15 | interaction score (O1-AA): -1.04 | interaction score (4H_BCR): -2.23 | interaction score (4H3905-AA): 0.75 | interaction score (4H697-AA): -1.86 | interaction score (GCN2_T): -1.61 | interaction score (4H982-AA): -1.63 | interaction score (4H3865-AA): -0.294 | interaction score (O11-AA): 2.48 | interaction score (4H510-AA): -1.55 | interaction score (4H451-AA): -0.0732 | interaction score (O4-AA): -0.235 | interaction score (O13-AA): -1.52 | interaction score (4H384-AA): -1.34 | interaction score (4H_GCN4): -2.22
